Assay results: patent publication US20240067729A1

Legend:
[1] = target: human PD-L1 Fc fusion (hPD-L1-Fc) (human) (UniProt Q9NZQ7); assay: blocking ELISA: residual biotin-hPD-1-Fc signal on coated hPD-L1-Fc, negative control
[2] = target: human PD-L1, his tagged (hPD-L1-his) (human) (UniProt Q9NZQ7); assay: ELISA on coated hPD-L1-his, negative control
[3] = target: cynomolgus PD-L1, his tagged (cPD-L1-his) (cynomolgus (Macaca fascicularis)) (UniProt G7PSE7); assay: ELISA on coated cPD-L1-his, negative control
Sequence of cynomolgus PD-L1, his tagged (cPD-L1-his) (cynomolgus (Macaca fascicularis)) (G7PSE7 entry or part of it limits assumed, form in doubt): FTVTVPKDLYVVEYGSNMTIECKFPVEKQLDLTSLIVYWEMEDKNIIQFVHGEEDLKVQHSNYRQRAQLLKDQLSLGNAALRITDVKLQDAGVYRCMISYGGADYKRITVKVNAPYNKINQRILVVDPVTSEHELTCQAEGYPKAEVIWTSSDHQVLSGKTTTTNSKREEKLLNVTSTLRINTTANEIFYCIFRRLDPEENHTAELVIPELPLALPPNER

Sequence of human PD-L1, his tagged (hPD-L1-his) (human) (Q9NZQ7 19-238 limits assumed): as the sequence (G7PSE7 entry or part of it limits assumed, form in doubt) above, with T33A, S34A, N62S, Q68R, R82Q, L173F, A185T, I192T, L215H counted along it
Sequence of human PD-L1 Fc fusion (hPD-L1-Fc) (human) (Q9NZQ7 19-238 limits assumed): as the sequence (G7PSE7 entry or part of it limits assumed, form in doubt) above, with T33A, S34A, N62S, Q68R, R82Q, L173F, A185T, I192T, L215H counted along it

Block Residual % [1]: 60% | A450 [2]: 0.034 A450 | A450 [3]: 0.0348 A450
Substance: NEG (negative control of the hybridoma supernatant screen)
